Assay results from patent US20230399393A1, “METHODS TO EXTEND HEALTH-SPAN AND TREAT AGE-RELATED DISEASES” (National University of Singapore, priority 2020, published 2023).

Columns and labels:
[1] = test system: C57Bl/6J mice; assay: Serum IL-6 levels of old mice (ELISA); assay type: in vivo, mouse; settings: old (110 week-old) male and female mice; vs IgG isotype control
Description: FIG. 51. A neutralizing IL-11 antibody reduces the levels of IL-6 protein in the serum of old mice. Graphs showing the effects of treatment with anti-IL11 (X203) or IgG isotype control on serum IL-6 levels levels of old (110 week-old) male and female mice. Dotted lines indicate the mean serum IL-6 levels of 12 week-old control male (0.159 μg/ml) and female (0.236 μg/ml) mice. Data were analyzed by 2-way ANOVA.
IL-6 is strongly linked with ageing (Maggio et al. 2006, J Gerontol A Biol Sci Med Sci. 61(6): 575-584; Ershler and Keller 2000, Annual Review of Medicine 51: 245-70).
Male and female C57Bl/6J mice aged 46 weeks were purchased from the Jackson Laboratory. Mice were randomised on a 1:1 basis to receive either 40 mg/kg of X203 or an isotype control IgG antibody (11E10), every 3 weeks (IP), starting from 55 weeks of age. Mice were sacrificed at 110 weeks of age for blood and tissues collection. 12 weeks old male and female C57Bl/6J mice that were used as control were purchased from Invivos (Singapore).
The levels of IL6 in mouse serum were quantified using Mouse IL-6 Quantikine ELISA Kit (M6000B; R&D Systems).

[2] = test system: C57Bl/6J mice; assay: Analysis of organ fibrosis (hydroxyproline assay, Masson's trichrome); assay type: in vivo, mouse; settings: at 110 weeks; heart, lung, kidney, skeletal muscle; vs IgG control antibody
Description: (§1) C57Bl/6J mice are randomised to receive either X203 or IgG control antibody at a dose of 40m/kg via IP injection every 3 weeks from age 55 weeks to age 110 weeks.
At 110 weeks, global tissue collagen content is evaluated in the heart, lung, kidney and skeletal muscle tissues by hydroxyproline assay. Tissue sections from these tissues are also subjected to Masson's trichrome staining and analysed by light microscopy (blinded to treatment group).

[3] = test system: AML12 cells; assay: In vitro model of senescence induction, qRT-PCR at day 7; assay type: cell-based, mouse; settings: 2 ug/ml from day 2, H2O2 0.75 mM, vs isotype-matched control IgG
Description: Senescent hepatic mouse cells were generated from cells of the mouse hepatocyte cell line AML12 as described in Tripathi et al., Star Protocols (2020) 1:100064 (hereby incorporated by reference in its entirety).
Briefly, AML12 cells were grown to 50% confluency and senescence was induced by treating the cells with a sub-lethal concentration of H2O2 (0.75 mM) for 1 h, followed by 23 h recovery per day, for a total of 7 days (as described in Tripathi et al., Star Protocols (2020) 1:100064). From day 2 onwards, 2 ug/ml of X209/X203 or isotype-matched control IgG was added to the cultures during the 23h recovery period.
Total RNA was isolated at day 7, and levels of p21 (Cdkn1a), […], Il11 and Tgfb gene expression were evaluated by qRT-PCR. Briefly, total RNA was extracted from cell lysates using Trizol (Invitrogen) followed by RNeasy column (Qiagen) purification. cDNAs were synthesized with iScript™ cDNA synthesis kit (Bio-Rad) according to manufacturer's instructions. Gene expression analysis was performed with either TaqMan (Applied Biosystems) or fast SYBR green (Qiagen) using the StepOnePlus Real-Time PCT System (Applied Biosystems) over 40 cycles. Expression data for p21 (Cdkn1a), Il1b, Il11 and Tgfb were normalised to Gapdh expression, and fold change was calculated using the 2^−ΔΔCt method.

[4] = test system: AML12; assay: Senescence reversal experiment, qPCR at day 10; assay type: cell-based, mouse; settings: 2 μg/ml for 72 hours after 7 days senescence induction; vs IgG
Description: FIG. 25. (25A) Schematic of senescence reversal experiment for data shown in B-D. Senescent AML12 were generated for 7 days as described above. IgG/X203/X209 (2 μg/ml) was added into the cultures at the end of senescence induction period for 72 hours; cells were harvested at day 10 for RNA extraction and subsequent qPCR experiments. Relative mRNA expression of (25B) Cdkn1a (p21), (25C) Il1β, and (25D) Il11.
Briefly, senescent AML12 were generated for 7 days as described above, but IgG/X203/X209 (2 μg/ml) was added into the cultures at the end of senescence induction period for 72 hours.
Senescent AML12 were generated by treating the cells with a sub-lethal concentration of H2O2 (0.75 mM) for 1 hour, followed by 23 hours recovery per day, for 7 days as described (Tripathi, Yen, and Singh 2020, STAR Protocols 1 (2): 100064). For prevention study, AML12 cells were treated with 2 ug/ml of either IgG or X209 during the recovery period of the senescence induction stage (from day 1 to day 7); cells were harvested for total RNA collection at day 10. For reversal study, senescence was first induced for seven days followed by 2 ug/ml of IgG, X203, or X209 treatment for 3 days; cells were harvested for total RNA collection at day 10.
Total RNA was extracted from AML12 or snap-frozen tissues using Trizol (Invitrogen) and RNeasy Mini Kit (Qiagen). […] using iScript cDNA Synthesis Kit (Biorad). Gene expression analysis was performed on duplicate samples with either TaqMan (Applied Biosystems) for Il11 (Mm00434162) or fast SYBR green (Qiagen) technology using StepOnePlus™ (Applied Biosystem) for Ccl2, Ccl5, Gapdh, Il1β, Il6, Il8, p16, p21, Tnfα, over 40 cycles. Expression data were normalized to GAPDH mRNA expression and fold change was calculated using 2^−ΔΔct method.

[5] = test system: Primary human cardiac fibroblasts; assay: IL11 or TGFβ1 stimulated fibroblasts with X203, X209 or IgG, western blot; assay type: cell-based; settings: IL11/TGFβ1 10 ng/ml, 24 hours; antibody 2 μg/ml
Description: FIG. 19. Western blot image showing the levels of p-ERK, ERK, p-P90RSK, P90RSK, p-LKB1, LKB1, p-AMPK, AMPK, p-mTOR, mTOR, p-p70S6K, p70S6K, p-S6RP, S6RP, SMA, and GAPDH in primary human cardiac fibroblasts that are unstimulated (BL) or stimulated for 24 hours with either IL11 or TGFβ1 in the presence of X203, X209, or IgG (11E10) isotype control. IL11/TGFβ1 (10 ng/ml), IgG/X203/X209 (2 μg/ml).
Primary human cardiac fibroblasts were stimulated with IL11 or TGFβ1, or unstimulated (BL).

[6] = test system: C57Bl/6J mice; assay: Grip strength using a grip strength meter; assay type: in vivo, mouse; settings: at 110 weeks; vs IgG control antibody
Description: as §1
At 110 weeks, mice are analysed for grip strength using a grip strength meter. Reduced grip strength is a robust marker of ageing-associated frailty in mice (see Fischer et al., Aging (2016) 8: 2370-2391, hereby incorporated by reference in its entirety).
Mice grip a wire mesh attached to the meter with both forelimbs, and are then gently pulled by the tail in a horizontal plane parallel to the base plate of the meter. Grip strength is recorded as the maximum force registered.

B1: X203: mouse anti-mouse IL-11 IgG antagonist antibody; VH SEQ ID NO:22, VL SEQ ID NO:23 (antibody, V domains shown)
VH: EVQLQQSGPELVKPGASVKIPCKASGYTFTDYNMDWVKQSHGKSLEWIGDINPHNGGPIYNQKFTGKATLTVDKSSSTAYMELRSLTSEDTAVYYCARGELGHWYFDVWGTGTTVTVSS
VL: DIVLTQSPASLAVSLGQRATISCRASKSVSTSGYSYIHWYQQKPGQPPKLLIYLASNLDSGVPARFSGSGSGTDFTLNIHPVEEEDAATYYCQHSRDLPPTFGGGTKLEIK
With B1 the “levels of IL-6 protein in the serum” value [1] was “significantly reduces”, the “fibrosis in the tissues analysed” value [2] was “less” and the “gene expression of Il11” value [3] was “trended towards a reduced level”. For the same molecule, the “gene expression of Tgfb” value [3] was “significantly reduce”, the “inflammation marker IL-1 b” value [4] was “significantly reduce” and the “inflammation marker IL-11” value [4] was “significantly reduce”. For the same molecule, the “senescence marker p21” value [4] was “significantly reduce”, the “level of phosphorylation of markers ERK, p90RSK, LKB1, mTOR, p70S6K and S6RP” value [5] was “significantly reduce” and the grip strength [6] was “greater”.
